Patent US20200299373A1 (NEURACLE SCIENCE, published 2020)
Where no end group is shown, it is not given here.

T1: FAM19A5 epitope fragment F3 conjugated to BSA (human, conjugated to BSA)
T1 peptide: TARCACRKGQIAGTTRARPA

T2: FAM19A5 epitope fragment F6 conjugated to BSA (human, conjugated to BSA)
T2 peptide: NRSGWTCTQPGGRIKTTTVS

T3: FAM19A5 epitope fragment F4 conjugated to BSA (human, conjugated to BSA)
T3 peptide: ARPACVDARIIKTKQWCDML

T4: FAM19A5 epitope fragment F2 conjugated to BSA (human, conjugated to BSA)
T4 peptide: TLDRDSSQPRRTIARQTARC

T5: FAM19A5 epitope fragment F1 conjugated to BSA (human, also: conjugated to BSA)
T5 peptide: QLAAGTCEIVTLDR

T6: FAM19A5 epitope fragment F5 conjugated to BSA (human, conjugated to BSA)
T6 peptide: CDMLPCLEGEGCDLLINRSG

T7: FAM19A5 mutant M7 (human)
T7 construct: Expressed on phage; Region EP7 is replaced with the FAM19A1-4 consensus
T7 chain: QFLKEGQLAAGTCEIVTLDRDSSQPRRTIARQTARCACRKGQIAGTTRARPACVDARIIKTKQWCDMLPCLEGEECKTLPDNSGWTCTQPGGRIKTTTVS

T8: FAM19A5 mutant M6 (human)
T8 construct: Expressed on phage; Region EP6 is replaced with the FAM19A1-4 consensus
T8 chain: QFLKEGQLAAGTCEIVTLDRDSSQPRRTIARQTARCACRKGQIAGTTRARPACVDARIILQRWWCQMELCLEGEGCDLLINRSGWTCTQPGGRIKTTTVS

T9: FAM19A5 mutant M4 (human)
T9 construct: Expressed on phage; Region EP4 is replaced with the FAM19A1-4 consensus
T9 chain: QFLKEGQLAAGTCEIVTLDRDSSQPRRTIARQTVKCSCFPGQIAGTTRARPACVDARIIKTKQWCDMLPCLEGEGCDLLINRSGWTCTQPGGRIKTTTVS

T10: FAM19A5 mutant M8 (human)
T10 construct: Expressed on phage; Region EP8 is replaced with the FAM19A1-4 consensus
T10 chain: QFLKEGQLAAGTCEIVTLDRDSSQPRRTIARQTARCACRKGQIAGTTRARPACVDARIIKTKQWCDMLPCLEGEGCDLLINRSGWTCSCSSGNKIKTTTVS

T11: FAM19A5 mutant M1 (human)
T11 construct: Region EP1 is replaced with the FAM19A1-4 consensus; The fusion to the phage protein is not described
T11 chain: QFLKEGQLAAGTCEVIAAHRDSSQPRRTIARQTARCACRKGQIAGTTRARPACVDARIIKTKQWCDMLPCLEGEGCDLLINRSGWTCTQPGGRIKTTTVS

T12: FAM19A5 mutant M3 (human)
T12 construct: Expressed on phage; Region EP3 is replaced with the FAM19A1-4 consensus
T12 chain: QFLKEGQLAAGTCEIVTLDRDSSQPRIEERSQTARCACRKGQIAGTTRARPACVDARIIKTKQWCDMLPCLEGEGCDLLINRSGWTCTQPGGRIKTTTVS

T13: FAM19A5 mutant M2 (human)
T13 construct: Expressed on phage; It has substitutions at amino acid residues 21-25 (EP2)
T13 chain: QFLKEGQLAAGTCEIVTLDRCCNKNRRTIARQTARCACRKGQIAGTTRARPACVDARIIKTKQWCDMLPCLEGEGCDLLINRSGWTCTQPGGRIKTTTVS


Experiments:
[1] = target: T1, FAM19A5 epitope fragment F3 conjugated …; test: ELISA on peptide-BSA coated on the plate
Procedure: (§1) Overlapping peptide fragments (F1-F6, See FIG. 1) of the human FAM19A5 protein were synthesized and conjugated to BSA. Binding of the different anti-FAM19A5 antibodies to the BSA-conjugated peptide fragments F1-F6 was determined by ELISA assay. Briefly, FAM19A5 fragment F1-F6 (diluted to 1 μg/mL in 50 mM carbonate buffer (Biosesang) or to 20 μg/mL for high concentration analysis) were used to coat the wells of 96-well immuno plates (Thermo Scientific) (100 μL/well) overnight at 4° C. and then subsequently washed twice in 1×PBS. The plates were then blocked with the blocking buffer (100 μL/well) for 1 hour at room temperature. During the 1-hour incubation, the relevant anti-FAM19A5 antibodies were diluted to 1 μg/mL (or 20 μg/mL for high concentration analysis) in the diluent buffer. Once the plates were washed (2× using 1×PBS), the diluted anti-FAM19A5 antibodies were added to the appropriate wells, and the plates were incubated at room temperature for 1 hour. The plates were subsequently washed for a total of five times using the washing buffer. Next, the ODP substrate (prepared by dissolving one ODP tablet (0-phenylenediamine Dihydrochloride, Thermo) into 9 mL of sterilized deionized water and 1 mL of 10× stable Peroxide Stable buffer (Theromo)) was added to each of the wells, and the color change reaction was allowed to occur for 10 minutes. This reaction was stopped by adding 100 μL of 2N H2SO4 (Daejung) to the wells. The absorption value of each of the wells was detected at 492 nm using a 96-well microplate reader (Molecular Device).

[2] = target: T2, FAM19A5 epitope fragment F6 conjugated …; test: ELISA on peptide-BSA coated on the plate
Procedure: as §1

[3] = target: T3, FAM19A5 epitope fragment F4 conjugated …; test: ELISA on peptide-BSA coated on the plate
Procedure: as §1

[4] = target: T4, FAM19A5 epitope fragment F2 conjugated …; test: ELISA on peptide-BSA coated on the plate
Procedure: as §1

[5] = target: T5, FAM19A5 epitope fragment F1 conjugated …; test: ELISA on peptide-BSA coated on the plate
Procedure: as §1

[6] = target: T6, FAM19A5 epitope fragment F5 conjugated …; test: ELISA on peptide-BSA coated on the plate
Procedure: as §1

FAM19A5 mutant M7 = target: T7, FAM19A5 mutant M7; test: ELISA with phage-displayed FAM19A5 mutants
FAM19A5 mutant M6 = target: T8, FAM19A5 mutant M6; test: ELISA with phage-displayed FAM19A5 mutants
FAM19A5 mutant M4 = target: T9, FAM19A5 mutant M4; test: ELISA with phage-displayed FAM19A5 mutants
FAM19A5 mutant M8 = target: T10, FAM19A5 mutant M8; test: ELISA with phage-displayed FAM19A5 mutants
FAM19A5 mutant M1 = target: T11, FAM19A5 mutant M1; test: ELISA with phage-displayed FAM19A5 mutants
FAM19A5 mutant M3 = target: T12, FAM19A5 mutant M3; test: ELISA with phage-displayed FAM19A5 mutants
FAM19A5 mutant M2 = target: T13, FAM19A5 mutant M2; test: ELISA with phage-displayed FAM19A5 mutants
[7] = target: T1, FAM19A5 epitope fragment F3 conjugated …; test: ELISA, antigen coated on the plate, antibody in solution, absorbance at 492 nm
Procedure: as §1

[8] = target: T2, FAM19A5 epitope fragment F6 conjugated …; test: as above
Procedure: as §1

[9] = target: T3, FAM19A5 epitope fragment F4 conjugated …; test: as above
Procedure: as §1

[10] = target: T4, FAM19A5 epitope fragment F2 conjugated …; test: as above
Procedure: as §1

[11] = target: T5, FAM19A5 epitope fragment F1 conjugated …; test: as above
Procedure: as §1

[12] = target: T6, FAM19A5 epitope fragment F5 conjugated …; test: as above
Procedure: as §1

[13] = target: T4, FAM19A5 epitope fragment F2 conjugated …; test: ELISA on coated BSA-conjugated peptide
Procedure: as §1, with “Next, the ODP substrate (prepared by dissolving one ODP tablet (0-phenylenediamine Dihydrochloride, Thermo) into 9 mL of sterilized deionized water and 1 mL of 10× stable Peroxide Stable buffer (Theromo)) was added to each of the wells, and the color change reaction was allowed to occur for 10 minutes. This reaction was stopped by adding 100 μL of 2N H2SO4 (Daejung) to the wells.” left out

binding result [1]	binding result [2]	binding result [3]	binding result [4]	binding result [5]	binding result [6]	binding result (FAM19A5 mutant M7)	binding result (FAM19A5 mutant M6)	binding result (FAM19A5 mutant M4)	binding result (FAM19A5 mutant M8)	binding result (FAM19A5 mutant M1)	binding result (FAM19A5 mutant M3)	binding result (FAM19A5 mutant M2)	O.D. [7]	O.D. [8]	O.D. [9]	O.D. [10]	O.D. [11]	O.D. [12]	binding result [13]	Binder
no binding	no binding	no binding	no binding	no binding	no binding	binds	binds	no binding	no binding	binds	binds	binds	0.06	0.06	0.05	0.06	0.06	0.05		anti-FAM19A5 antibody 2-13 (antibody, V domains shown, Chicken-derived scFv clone; also called Anti-FAM19A5 ("2-13")) VH: AVTLDESGGGLQTPGGALSLVCKASGFTFSSHGMFWVRQTPGKGLEYVAEITNDGSGTNYGSAVKGRATISRDNGQSTVRLQLNNLRAEDTGTYFCARSTYECPGGFSCWGDTGQIDAWGHGTEVIVSS VL: ALTQPSSVSANPGETVKITCSGGSYSYGWFQQKSPGSALVTVIYWDDERPSDIPSRFSGALSGSTNTLTITGVQADDEAVYFCGTEDISGTAGVFGAGTTLTVL
no binding	no binding	no binding	no binding	no binding		no binding	no binding	binds	no binding	binds	binds	binds	0.06	0.05	0.06	0.06	0.06	1.5		anti-FAM19A5 antibody 1-65 (antibody, V domains shown) VH: AVTLDESGGGLQTPGGALSLVCKASGFTFSSYQMGWVRQAPGKGLEWVGVINKSGSDTSYGSAVKGRATISRDNGQSTVRLQLNNLRAEDTGTYFCAKGSASYITAATIDAWGHGTEVIVSS VL: ALTQPSSVSANPGETVKITCSGGGSSGYGYGWYQQKSPSSAPLTVIYWNDKRPSDIPSRFSGSKSGSTHTLTITGVQAEDEAVYFCGNDDYSSDSGYVGVFGAGTTLTVL
						binds	binds	binds	binds	binds	binds	no binding				3.3				anti-FAM19A5 antibody 3-2 (antibody, V domains shown, The text reports one result for both formats, so one molecule is written here; also called h3-2; m3-2) VH: not shown VL: ALTQPSSVSANPGETVKITCSGGGSYAGSYYYGWYQQKAPGSAPVTLIYESNKRPSDIPSRFSGSTSGSTATLTITGVQADDEAIYYCGSWDSSNGGIFGAGTTLTVL
						binds	binds	binds	binds	binds	binds	no binding							binds	anti-FAM19A5 antibody 1-28 (antibody, V domains shown, Chicken-derived scFv clone; also called Anti-FAM19A5 ("1-28")) VH: AVTLDESGGGLQTPGGALSLVCKASGFDFSDYGMGWVRQAPGKGLEWVAAIRSDGSNPSYGSAVKGRATISKDNGRSTVRLQLNNLRAEDTATYYCAKDGNGYCALDAYRSGGYSCGVYPGSIDAWGHGTEVIVSS VL: ALTQPSSVSANLEGTVEITCSGSGYGYGWYQQKSPGSAPVTVIYQNDKRPSDIPSRFSGSKSGSTGTLTITGVQVEDEAVYYCGSEDSSTLAGIFGAGTTLTVL
